Target: T1, purified human plasma kallikrein (active form), biotinylated (human, UniProt P03952 20-390; P03952 391-638, biotinylated with Sulfo-NHS-LC-Biotin (sites not given))
T1 construct: The protein was captured on avidin-coated plates through biotin; also called pKal; PKal
Experiment: complex ELISA: biotinylated kallikrein captured on avidin plate, incubated with plasma, bound C1-INH detected with polyclonal anti-C1-INH and alkaline phosphatase secondary antibody
Protocol: Immulon 2HB plates were coated with 5 μg/ml avidin in coating buffer (100 μl) overnight at 4° C. Plates were washed three times using PBS-Tween (200 μl/each). Subsequently, 200 μl 1% BSA in PBS was added to block the unused sites. The plates were incubated at 37° C. for 1 hr. Plates were washed three times using PBS-Tween (200 μl/each). Added to the plates were: 25 μl standards or samples, 25 μl biotinylated […] and/or biotinylated kallikrein (1 μg/ml), and 50 μl binding buffer. Plates were mixed and incubated at 37° C. for 1 hour. Plates were washed three times using PBS-Tween (200 μl/each). A polyclonal antibody to C1-INH was added and incubated at room temperature for 1 hour. Plates were washed three times using PBS-Tween (200 μl/each). Alkaline phosphatase conjugated secondary antibody was added and incubated at room temperature for 1 hour. […] The OD at 450 nm was read and calculations were performed using the standard curve.
One consideration in development of the assay was that it is beneficial to employ an assay that quantitates functional C1-INH based on an enzyme that is requisite for bradykinin formation. […] Nevertheless, complex ELISA assays detecting functional interaction between C1-INH and either Factor XIIa or kallikrein worked well since only that fraction of kallikrein (˜60%) that is inhibited by C1-INH is detected.

T1 sequence (P03952 20-390, chain 1 of 2): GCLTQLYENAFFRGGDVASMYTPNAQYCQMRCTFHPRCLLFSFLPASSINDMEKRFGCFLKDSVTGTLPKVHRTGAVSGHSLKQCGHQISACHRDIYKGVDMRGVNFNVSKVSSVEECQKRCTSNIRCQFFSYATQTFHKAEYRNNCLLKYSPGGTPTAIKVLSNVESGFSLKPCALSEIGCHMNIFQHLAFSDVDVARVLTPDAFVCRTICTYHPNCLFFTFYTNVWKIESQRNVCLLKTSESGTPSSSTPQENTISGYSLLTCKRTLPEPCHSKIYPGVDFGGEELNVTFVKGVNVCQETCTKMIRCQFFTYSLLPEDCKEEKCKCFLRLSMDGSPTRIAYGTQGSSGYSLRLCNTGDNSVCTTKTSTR
T1 sequence (P03952 391-638, chain 2 of 2): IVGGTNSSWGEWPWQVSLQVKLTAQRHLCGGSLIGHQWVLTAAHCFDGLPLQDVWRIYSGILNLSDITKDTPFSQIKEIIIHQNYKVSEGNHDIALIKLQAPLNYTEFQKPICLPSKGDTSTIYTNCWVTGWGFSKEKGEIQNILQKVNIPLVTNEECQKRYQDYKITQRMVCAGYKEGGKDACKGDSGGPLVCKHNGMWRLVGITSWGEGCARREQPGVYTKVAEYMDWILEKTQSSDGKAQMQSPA

binding result: binds
B1: plasma protease C1 inhibitor (C1-INH) in plasma of healthy (normal) controls (other)
chain: NPNATSSSSQDPESLQDRGEGKVATTVISKMLFVEPILEVSSLPTTNSTTNSATKITANTTDEPTTQPTTEPTTQPTIQPTQPTTQLPTDSPTQPTTGSFCPGPVTLCSDLESHSTEAVLGDALVDFSLKLYHAFSAMKKVETNMAFSPFSIASLLTQVLLGAGENTKTNLESILSYPKDFTCVHQALKGFTTKGVTSVSQIFHSPDLAIRDTFVNASRTLYSSSPRVLSNNSDANLELINTWVAKNTNNKISRLLDSLPSDTRLVLLNAIYLSAKWKTTFDPKKTRMEPFHFKNSVIKVPMMNSKKYPVAHFIDQTLKAKVGQLQLSHNLSLVILVPQNLKHRLEDMEQALSPSVFKAIMEKLEMSKFQPTLLTLPRIKVTTSQDMLSIMEKLEFFDFSYDLNLCGLTEDPDLQVSAMQHQTVLELTETGVEAAAASAISVARTLLVFEVQQPFLFVLWDQQHKFPVFMGRVYDPRA
notes: Native C1-INH as present in citrated plasma of healthy human controls (purified C1-INH in buffer was used for the standard curve); also called functional C1-INH

From patent US20150362492A1 (DYAX, published 2015)
